We go through 19 variants from the RNAGym collection of RNA variant scans (doi:10.1073/pnas.2313332121).

This sample holds only a part of the variants without activity. Where only a bound is given, the exact number is not on record here.

To fix the notation:
B1: TPR 5TU (parent)
chain: GGAUCUUCUCGAUCUAACAAAAAAGACAAAUCUGCCACAAAGCUUGAGAGCAUCUUCGGAUGCAGAGGCGGCAGCCUUCGGUGGCGCGAUAGCGCCAACGUUCUCAACUAUGACACGCAAAACGCGUGCUCCGUUGAAUGGAGUUUAUCAUG

This series covers variants of B1. In words: polymerase ribozyme fitness, log enrichment relative to wild type (log ratio); higher = more active; in vitro selection for triplet polymerase activity. Summed up:
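One round of in vitro selection, in triplicate, was applied to PCR-built, transcribed mutant libraries of each subunit of a heterodimeric triplet polymerase ribozyme. The steps were annealing with a biotinylated primer, partner subunit and triplets, incubation frozen at −7 °C, gel excision of extended constructs, streptavidin-bead capture and RT-PCR. Fitness is the logarithm, base 2, of genotype enrichment over wild-type enrichment from inverse-variance-weighted replicate averages of Illumina-sequenced inputs and outputs, keeping genotypes with ≥10 input reads and ≥1 read per output.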
On to GGAUCUUCUCGAUCUAUCAAAAAUGACAAAUCUGCCACAAAGCUUGAGAGCAUCUUCGGAUGCAGAGGCGGCAGCCUUCGGUCGCGCGAUAGCGCCAACGUUCUCAACUAUGACACGCAAAACGCGUGCUCCGUUGAAUGGAGUUUAUCAUG [A17U A24U G83C], for which the “polymerase ribozyme fitness (log ratio)” value was 0.0208.
For GGAUCUUCUCGAUCUAUCAAAAAAGACAAAUCUGCCUCAAAGCUUGAGAGCAUCUUCGCAUGCAGAGGCGGCAGCCUUCGAUGGCGCGAUAGCGCCGACGUUCUCAACUAUGACAGGCAAAACGCGUGCUCCGUUGAAUGGAGUUUAUCAUG [A17U A37U G59C G81A A97G C116G], the “polymerase ribozyme fitness (log ratio)” value was -1.87.
GGAUCUUCUCGAUCUAUCAAAAAAGACAUAUCUGCCACAAAGCUUGAGAGCAUCUUCGGAUGCAGAGGCGGCAGCCUUCGGUGGCGCGAUAGAGCCAACGUUCUCAACUAUGACACGCAAAACGCGUGCUCCGUUGAAUGUAGUUUAUCAUG [A17U A29U C93A G141U]: the “polymerase ribozyme fitness (log ratio)” value was no more than -4.2.
As for GGAUCUUCUCGAUCUAUCAAAAAAGACAUAUCUGCCACAAAGCUUGAGAGCAUCUUCGGAUGCAGAGGCGGCACCCUUCGGUGGCGCGAUAGCGCCAACGUUCUCAACUAUGACACGCAAAACUCGUGCUCCGUUGAAUGGAGUUUAUCAUG [A17U A29U G74C G124U], the figure is no more than -4.2.
As for GGAUCUUCUCGAUCUAUCAAAAAAGACAAAUCUGCCACAAAGCUUGAGAGCAUCUUCGGAUGCAGAGGCGGCAGCCUUCGGUGGCGCGAUAGCGCCAACGUUCUCAACUAUGUCACGCAAAACGCGUGCUCCGUUGAAUGGAGUUUAUCAUG [A17U A113U], the figure is -1.99.
GGAUCUUCUCGAUCUAUCAAAAAAGACAAAUCUGCCAAAAAGCAUGAGAGCAUCUUCGGAUGCAGAGGCCGCAGCCUUCGGCGGCGCGAUAGCGUCAACGUUCUCAACUAUGACACGCAAAACGCGUGCUCCGUUGAAUGGAGUUUAUCAUG [A17U C38A U44A G70C U82C C95U]: the “polymerase ribozyme fitness (log ratio)” value was no more than -4.2.
Consider GGAUCUUCUCGAUCUAUCAAAAAAGACAAAUCUGCCACAAAGCUUGAGAGAAUCUUCGGAUGCAGAGGCGGCAGCCUUCGGUGGCGCGAUAGCUCCAACGUUCUCAACUAUGACACGCAAAACGCGUGCUCCGUUGAGUGGAGUUUAUCUUG [A17U C51A G94U A138G A150U], for which the “polymerase ribozyme fitness (log ratio)” value was no more than -4.2.
Take GGAUCUUCUCGAUCUAUCAAAAAAGACAAAUCUGCCACAGAGCUUGAGAGCAUUUUCGGAUGCAGAGGCGGCAGCCUUCGGUAGCGCGAUCGCGCCAACGUUCUCAACUAUGACACGCAAAACGCCUGCUCCGUUGAAUGGAGUUUAUCAUG [A17U A40G C54U G83A A91C G126C]: the “polymerase ribozyme fitness (log ratio)” value was no more than -4.2.
Turning to GGAUCUUCUCGAUCUAUCAAAAAAGACAAUUCUGCCACAAAGCUUGAGAGCAUCCUCGGAUGCAGAGGCGGCAGCCUUCGGUGGCGCGAUAGCGCCAACGUUCUCAACUAUGACAUGCAAAACGCGUGCUCCGUUGAAUGGAGUUUAUCAUG [A17U A30U U55C C116U], the “polymerase ribozyme fitness (log ratio)” value was -4.01.
As for GGAUCUUCUCGAUCUAUCAAAAAAGACACAUCUGCCACAAGGCUUGAGAGCAUCUUCGCAUGCAGAGGCGGCAGCCUUCGGUGGGGCGAUAGCGCCAACGUUCUCAACUAUGACACGCAAAACGCGUGCUCCGUUGAAUGGAGUUUAUCAUG [A17U A29C A41G G59C C85G], the figure is no more than -4.2; as for GGAUCUUCUCGAUCUAUCAAAAAAGACAAAUGUGCCACAAAGCUUGAAAGCAUCUUCGGAUGCAGAGGCGGCAGCCUUGGGUGUCUCGAUAGCGCCAACGUUCUCAAUUAUGACACGCAAAACGCGUGCUCCGUUGAAUGGAGUUUAUCAUG [A17U C32G G48A C79G G84U G86U C108U], no more than -4.2; as for GGAUCUUCUCGAUCUAUCAAAAAAGACAAAUCUGCCACAAAGCUUGAGAGGAUCUUCGGAUGCAGAGGCGGCAGCCUUCGGUAGCGCGAUAGCGCCAACGUUCUCAACUAUGACACGCAAAACGCGUGCUCCGCUGAAUGGAGUUUAUCAUG [A17U C51G G83A U134C], -3.2.
In the case of GGAUCUUCUCGAUCUAUCAAAAAAGCCAAAUCUGCCAUAAAGCUUGAGAGCAUCUUCGGAUGCAGAGGCGGCAGCCUUCGGUAGCGCGAUAGCGCCAACGUUCUCAACUAUGACACGCAAAACUCGUGCUCCGUUGAAUGGAGUUUAUCAUG [A17U A26C C38U G83A G124U], the “polymerase ribozyme fitness (log ratio)” value was -3.97.
As for GGAUCUUCUCGAUCUAUCAAAAAAGACAAAUCUGCCACAGAGCUUGAGAGCAUCUUCGGAUGCAGAGGCGGCAGCCUUCGGUGGCGCGAUAGCCCCAACGUUCUCAACUAUGACACGCAAAACGCGUGCUCUGUUGAAUGGAGUUUAUCAUG [A17U A40G G94C C132U], the figure is -4.03; as for GGAUCUUCUCGAUCUAUCAAAAAAGACAAAUCUGCCCCAAAGCUUGAGAGCAUCUUCGGAUGCAGAGGCGGCAGCCUUCGGUGGCGCGAUAGGGCAAACGUUCUCAACUAUGACACGCAAAACGCGUGCUCCGUUGAAUGGAGUUUAUCAUG [A17U A37C C93G C96A], no more than -4.2; as for GGAUCUUCUCGAUCUAUCAAAAAAGACAAAUCUGUCACAAAGCUUGAGAGCAUCUUCGGAUGCAGAGGCGGCAGCCUUCGGUGGCGCGAUAGCGCCUACGUUCUCAACUAUGACACGCAAAACGCGUGCUCCGUUGAAUGAAGUUUAUCAUG [A17U C35U A97U G141A], -1.34.
GGAUCUUCUCGAUCUAUCAAAAAAGACAAAUCUGCCACAUAGCUUGAGAGCAUCUUCGGAUGCAGAGGCGGCAGCCUUCGGUGGCGCGAUAGCGCCAACGUUCUCAACUAUGACACGCAAAAUGCGUGCUCCGUUGAAUGGAGUUUAUCAUG [A17U A40U C123U]: the “polymerase ribozyme fitness (log ratio)” value was -0.36.
Take GGAUCUUCUCGAUCUAUCAAAAAAGACAAAUCUGCCACAAAGCUUGGGAGCAUCUUUGGAUGCAGAGGCGGCACCCCUCGGAAGCGCGAUAGCGCCAACGUGCUCAACUAUGACACGCAAAACGCGUGCUCCGUUGAAUGGAGUUUAUCGUG [A17U A47G C57U G74C U77C U82A G83A U102G A150G]: the “polymerase ribozyme fitness (log ratio)” value is no more than -4.2.
As for GGAUCUUCUCGAUCUAUCAAAAAAGACAAAUCUGCCACAAAGCUUGAGAGCUUCUUCGGAUGCAGAGGCGGCAGCCUUCGGUGGCGCGAUAGCGCCAACGUUCUCAACUAUGACACGCAAAACGCGUGCUCCGUUGAAUGGCGUUUAUCAUG [A17U A52U A142C], the figure is -3.3.
